From paper PMC4792234, “Modulation of MICAL Monooxygenase Activity by its Calponin Homology Domain: Structural and Mechanistic Insights” (Scientific Reports, 2016) come the findings set out here.

The target of series [1] is T1, MICALMO-CH (mMICAL-1 residues 2-615) (Mus musculus, UniProt Q8VDP3, Q78K).
T1 construct: gene Mical1; MO plus CH domains, residues 2-615, Q78K to remove a protease site; extra Gly from vector; N-terminal His-tag removed with TEV; E. coli BL21, codon-optimised
T1 sequence (Q8VDP3 2-615 Q78K): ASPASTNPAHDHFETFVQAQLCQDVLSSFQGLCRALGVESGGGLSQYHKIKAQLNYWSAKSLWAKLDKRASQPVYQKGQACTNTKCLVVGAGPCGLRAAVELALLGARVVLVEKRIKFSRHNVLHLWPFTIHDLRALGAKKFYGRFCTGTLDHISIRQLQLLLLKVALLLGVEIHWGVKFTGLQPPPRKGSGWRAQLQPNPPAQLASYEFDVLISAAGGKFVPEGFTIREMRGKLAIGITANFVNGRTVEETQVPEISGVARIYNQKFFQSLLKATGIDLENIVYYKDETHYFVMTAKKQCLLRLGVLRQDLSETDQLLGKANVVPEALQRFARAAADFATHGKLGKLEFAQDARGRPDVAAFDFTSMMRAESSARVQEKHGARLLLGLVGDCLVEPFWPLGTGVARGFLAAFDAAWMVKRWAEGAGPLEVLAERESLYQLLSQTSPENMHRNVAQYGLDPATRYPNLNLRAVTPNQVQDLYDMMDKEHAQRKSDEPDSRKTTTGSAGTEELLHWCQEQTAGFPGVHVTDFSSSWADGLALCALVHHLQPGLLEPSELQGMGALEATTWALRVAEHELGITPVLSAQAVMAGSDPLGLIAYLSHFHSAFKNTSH
The experiment in a line: X-ray crystallography, […] and […] Å. Type of series: binding. To be noted: oxidised FAD in the MO domain; two crystal forms.

Substrate in series [2]: NC(=O)C1=CN([C@@H]2O[C@H](COP(=O)(O)OP(=O)(O)OC[C@H]3O[C@@H](n4cnc5c(N)ncnc54)[C@H](OP(=O)(O)O)[C@@H]3O)[C@@H](O)[C@H]2O)C=CC1
The experiment in a line: purified protein. The class given is biochemical, Mus musculus. To be noted: no F-actin, O2 as acceptor, 5 mM Tris-HCl pH 8.0, 50 mM KCl, 2 mM MgCl2, 0.2 mM CaCl2, 0.5 mM DTT, 1 mM ATP, 600 nM enzyme.

For the molecule `Cc1cc2nc3c(=O)[nH]c(=O)nc-3n(C[C@H](O)[C@H](O)[C@H](O)COP(=O)(O)OP(=O)(O)OC[C@H]3O[C@@H](n4cnc5c(N)ncnc54)[C@H](O)[C@@H]3O)c2cc1C` [FAD], in series [1], the “X-ray crystallography, 2.31 and 2.88 Å” value is “In both crystal forms the FAD cofactor is oxidized and accessible through two openings”.

B1: MICALMO-CH (mMICAL-1 residues 2-615) (Mus musculus; Q78K) (protein)
chain: T1 sequence (Q8VDP3 2-615 Q78K)
notes: MO plus CH domains, residues 2-615, Q78K to remove a protease site; extra Gly from vector; N-terminal His-tag removed with TEV; E. coli BL21, codon-optimised
In general, Km refers to the concentration of substrate that gives half-maximal velocity. As usually defined, the kcat is the maximal rate divided by the concentration of active sites. Take B1: in series [2], the Km was 37.7 ± 8.4 µM and the kcat is 1.7 ± 0.5 s⁻¹.

B2: MICALMO (mouse MICAL-1 MO domain, residues 1-484) (Mus musculus) (protein)
chain: MASPASTNPAHDHFETFVQAQLCQDVLSSFQGLCRALGVESGGGLSQYHKIKAQLNYWSAKSLWAKLDKRASQPVYQQGQACTNTKCLVVGAGPCGLRAAVELALLGARVVLVEKRIKFSRHNVLHLWPFTIHDLRALGAKKFYGRFCTGTLDHISIRQLQLLLLKVALLLGVEIHWGVKFTGLQPPPRKGSGWRAQLQPNPPAQLASYEFDVLISAAGGKFVPEGFTIREMRGKLAIGITANFVNGRTVEETQVPEISGVARIYNQKFFQSLLKATGIDLENIVYYKDETHYFVMTAKKQCLLRLGVLRQDLSETDQLLGKANVVPEALQRFARAAADFATHGKLGKLEFAQDARGRPDVAAFDFTSMMRAESSARVQEKHGARLLLGLVGDCLVEPFWPLGTGVARGFLAAFDAAWMVKRWAEGAGPLEVLAERESLYQLLSQTSPENMHRNVAQYGLDPATRYPNLNLRAVTPNQVQDLYD
notes: isolated N-terminal FAD monooxygenase domain, residues 1-484 of 1048
With B2, in series [2], the Km is 28.8 ± 2.2 µM and the kcat turned out to be 0.68 ± 0.02 s⁻¹.
